According to PMC5296763, “Structural basis for redox sensitivity in Corynebacterium glutamicum diaminopimelate epimerase: an enzyme involved in L-lysine biosynthesis” (Scientific Reports, 2017):

How the values were obtained:
[1] = target: T1, CgDapF (Corynebacterium glutamicum, UniProt Q8NP73); test: X-ray crystal structure, […] A; type: binding; details: crystallised with a 10 mM DAP isomer mixture (L,L, D,D, D,L), pH 9.0; only D,L-DAP density seen; active site
T1 construct: gene dapF

[2] = substrate: N[C@@H](CCC[C@H](N)C(=O)O)C(=O)O; test: purified protein; type: biochemical, Corynebacterium glutamicum; details: 0.1 M potassium phosphate, pH 8.0, room temperature, 3.45 uM enzyme, substrate named in the assay method
[3] = target: the molecule itself; test: SEC; size-exclusion chromatography under both the oxidized and the reduced conditions; data not shown

With `N[C@H](CCC[C@H](N)C(=O)O)C(=O)O` [D,L-DAP] the “X-ray crystal structure, 2.6 A” value [1] was “we determined the crystal structure of the protein in complex with the D,L-DAP product”.

B1: CgDapF (Corynebacterium glutamicum ATCC 13032) (protein)
chain: MNLTIPFAKGHATENDFIIIPDEDARLDLTPEMVVTLCDRRAGIGADGILRVVKAADVEGSTVDPSLWFMDYRNADGSLAEMCGNGVRLFAHWLYSRGLVDNTSFDIGTRAGVRHVDILQADQHSAQVRVDMGIPDVTGLSTCDINGQVFAGLGVDMGNPHLACVVPGLSASALADMELRAPTFDQEFFPHGVNVEIVTELEDDAVSMRVWERGVGETRSCGTGTVAAACAALADAGLGEGTVKVCVPGGEVEVQIFDDGSTLTGPSAIIALGEVQI
In the case of B1, the Km [2] is reported as 1860 µM and the kcat [2] is reported as 58 s⁻¹.

B2: Diaminopimelate epimerase (DapF) from Corynebacterium glutamicum (enzyme, UniProt Q8NP73 1-277, looked up)
chain: MNLTIPFAKGHATENDFIIIPDEDARLDLTPEMVVTLCDRRAGIGADGILRVVKAADVEGSTVDPSLWFMDYRNADGSLAEMCGNGVRLFAHWLYSRGLVDNTSFDIGTRAGVRHVDILQADQHSAQVRVDMGIPDVTGLSTCDINGQVFAGLGVDMGNPHLACVVPGLSASALADMELRAPTFDQEFFPHGVNVEIVTELEDDAVSMRVWERGVGETRSCGTGTVAAACAALADAGLGEGTVKVCVPGGEVEVQIFDDGSTLTGPSAIIALGEVQI
modifications: selenomethionine-substituted (SeMet derivative) in the crystals of the oxidized and reduced forms (5H2G, 5H2Y)
notes: Diaminopimelate epimerase (DapF, EC 5.1.1.7) of Corynebacterium glutamicum strain ATCC 13032, gene amplified from genomic DNA and cloned in pET30a; also called CgDapF; DAP epimerase; source: E. coli B834(DE3), purified (Ni-NTA, size-exclusion chromatography on Superdex 200); not shown: His tag (from the Ni-NTA purification)
In the case of B2, the “stoichiometry N” value [3] is reported as 2.
